According to patent US20210238260:

Chain of Factor X (FX), P00742 (P00742 whole entry, looked up): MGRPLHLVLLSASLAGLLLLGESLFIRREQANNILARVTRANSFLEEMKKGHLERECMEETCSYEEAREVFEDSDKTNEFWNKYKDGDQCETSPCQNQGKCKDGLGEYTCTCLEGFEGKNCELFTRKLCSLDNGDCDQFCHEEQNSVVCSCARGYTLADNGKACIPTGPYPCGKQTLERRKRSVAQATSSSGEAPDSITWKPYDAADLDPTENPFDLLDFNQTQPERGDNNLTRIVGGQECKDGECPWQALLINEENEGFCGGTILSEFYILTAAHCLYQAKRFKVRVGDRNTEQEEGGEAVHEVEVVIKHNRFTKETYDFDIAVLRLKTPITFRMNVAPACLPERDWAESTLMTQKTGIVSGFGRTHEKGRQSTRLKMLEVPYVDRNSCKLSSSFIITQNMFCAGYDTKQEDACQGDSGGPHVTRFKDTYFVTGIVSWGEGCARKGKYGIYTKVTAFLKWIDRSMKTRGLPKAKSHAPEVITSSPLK
Chain of Factor X, P00742 (P00742 whole entry, looked up): as above

Row | Protein | KM (Factor X (FX), P00742) [µM] | % of WT kcat/KM (Factor X, P00742) [%] | kcat (Factor X, P00742) [s⁻¹] | kcat/KM (Factor X, P00742) [M⁻¹ s⁻¹] | kcat (s^-1) of FX activation by FIXa variant in the Xase complex (FVIIIa, PC/PS vesicles, Ca2+), fluorogenic FXa read-out (Factor X (FX), P00742) [s⁻¹] | KM (Factor X, P00742) [µM] | catalytic activity (kcat/KM) for activation of FX (Factor X (FX), P00742)
1 | FIXa-Y155F/K247N/N249S/R318Y/R338E/T343R/R403E/E410N (protein) chain 1: YNSGKLEEFVQGNLERECMEEKCSFEEAREVFENTERTTEFWKQYVDGDQCESNPCLNGGSCKDDINSYECWCPFGFEGKNCELDVTCNIKNGRCEQFCKNSADNKVVCSCTEGYRLAENQKSCEPAVPFPCGRVSVSQTSKLTR chain 2: VVGGEDAKPGQFPWQVVLNGKVDAFCGGSIVNEKWIVTAAHCVETGVKITVVAGEHNIEETEHTEQNRSVIRIIPHHNYNAAINKYNHDIALLELDEPLVLNSYVTPICIADKEYTNIFLKFGSGYVSGWGRVFHKGYSALVLQYLRVPLVDRATCLESTKFRIYNNMFCAGFHEGGRDSCQGDSGGPHVTEVEGTSFLTGIISWGEECAMKGKYGIYTKVSEYVNWIKNKTKLT | 0.0257 | 864 | 9.7 | 4e+08 |  |  | 
2 | FIXa-Y155F/K228N/I251S/R318Y/R338E/R403E/E410N (protein) chain 1: YNSGKLEEFVQGNLERECMEEKCSFEEAREVFENTERTTEFWKQYVDGDQCESNPCLNGGSCKDDINSYECWCPFGFEGKNCELDVTCNIKNGRCEQFCKNSADNKVVCSCTEGYRLAENQKSCEPAVPFPCGRVSVSQTSKLTR chain 2: VVGGEDAKPGQFPWQVVLNGKVDAFCGGSIVNEKWIVTAAHCVETGVNITVVAGEHNIEETEHTEQKRNVSRIIPHHNYNAAINKYNHDIALLELDEPLVLNSYVTPICIADKEYTNIFLKFGSGYVSGWGRVFHKGYSALVLQYLRVPLVDRATCLESTKFTIYNNMFCAGFHEGGRDSCQGDSGGPHVTEVEGTSFLTGIISWGEECAMKGKYGIYTKVSEYVNWIKNKTKLT | 0.0393 | 296 | 5.3 | 1.4e+08 |  |  | 
3 | FIXa-N260S/R318Y/R338E/T343R/R403E/E410N (protein) chain 1: YNSGKLEEFVQGNLERECMEEKCSFEEAREVFENTERTTEFWKQYVDGDQCESNPCLNGGSCKDDINSYECWCPFGFEGKNCELDVTCNIKNGRCEQFCKNSADNKVVCSCTEGYRLAENQKSCEPAVPFPCGRVSVSQTSKLTR chain 2: VVGGEDAKPGQFPWQVVLNGKVDAFCGGSIVNEKWIVTAAHCVETGVKITVVAGEHNIEETEHTEQKRNVIRIIPHHNYSAAINKYNHDIALLELDEPLVLNSYVTPICIADKEYTNIFLKFGSGYVSGWGRVFHKGYSALVLQYLRVPLVDRATCLESTKFRIYNNMFCAGFHEGGRDSCQGDSGGPHVTEVEGTSFLTGIISWGEECAMKGKYGIYTKVSEYVNWIKNKTKLT | 0.0321 | 638 | 8.9 | 2.9e+08 |  |  | 
4 | FIXa-K228N/K247N/N249S/R318Y/R338E/T343R/E410N (protein) chain 1: YNSGKLEEFVQGNLERECMEEKCSFEEAREVFENTERTTEFWKQYVDGDQCESNPCLNGGSCKDDINSYECWCPFGFEGKNCELDVTCNIKNGRCEQFCKNSADNKVVCSCTEGYRLAENQKSCEPAVPFPCGRVSVSQTSKLTR chain 2: VVGGEDAKPGQFPWQVVLNGKVDAFCGGSIVNEKWIVTAAHCVETGVNITVVAGEHNIEETEHTEQNRSVIRIIPHHNYNAAINKYNHDIALLELDEPLVLNSYVTPICIADKEYTNIFLKFGSGYVSGWGRVFHKGYSALVLQYLRVPLVDRATCLESTKFRIYNNMFCAGFHEGGRDSCQGDSGGPHVTEVEGTSFLTGIISWGEECAMKGKYGIYTKVSRYVNWIKNKTKLT |  |  |  |  | 4.7 | 0.0381 | 
5 | FIXa-R318Y/T343R/E410N (protein) chain 1: YNSGKLEEFVQGNLERECMEEKCSFEEAREVFENTERTTEFWKQYVDGDQCESNPCLNGGSCKDDINSYECWCPFGFEGKNCELDVTCNIKNGRCEQFCKNSADNKVVCSCTEGYRLAENQKSCEPAVPFPCGRVSVSQTSKLTR chain 2: VVGGEDAKPGQFPWQVVLNGKVDAFCGGSIVNEKWIVTAAHCVETGVKITVVAGEHNIEETEHTEQKRNVIRIIPHHNYNAAINKYNHDIALLELDEPLVLNSYVTPICIADKEYTNIFLKFGSGYVSGWGRVFHKGYSALVLQYLRVPLVDRATCLRSTKFRIYNNMFCAGFHEGGRDSCQGDSGGPHVTEVEGTSFLTGIISWGEECAMKGKYGIYTKVSRYVNWIKNKTKLT |  |  |  |  | 3.2 | 0.0523 | 
6 | FIXa-K228N/K247N/N249S/R318Y/T343R/R403E/E410N (protein) chain 1: YNSGKLEEFVQGNLERECMEEKCSFEEAREVFENTERTTEFWKQYVDGDQCESNPCLNGGSCKDDINSYECWCPFGFEGKNCELDVTCNIKNGRCEQFCKNSADNKVVCSCTEGYRLAENQKSCEPAVPFPCGRVSVSQTSKLTR chain 2: VVGGEDAKPGQFPWQVVLNGKVDAFCGGSIVNEKWIVTAAHCVETGVNITVVAGEHNIEETEHTEQNRSVIRIIPHHNYNAAINKYNHDIALLELDEPLVLNSYVTPICIADKEYTNIFLKFGSGYVSGWGRVFHKGYSALVLQYLRVPLVDRATCLRSTKFRIYNNMFCAGFHEGGRDSCQGDSGGPHVTEVEGTSFLTGIISWGEECAMKGKYGIYTKVSEYVNWIKNKTKLT |  |  |  |  | 8.1 | 0.125 | 
7 | FIXa-Y155F/K228N/K247N/N249S/R318Y/R338E/T343R/R403E/E410N (protein) chain 1: YNSGKLEEFVQGNLERECMEEKCSFEEAREVFENTERTTEFWKQYVDGDQCESNPCLNGGSCKDDINSYECWCPFGFEGKNCELDVTCNIKNGRCEQFCKNSADNKVVCSCTEGYRLAENQKSCEPAVPFPCGRVSVSQTSKLTR chain 2: VVGGEDAKPGQFPWQVVLNGKVDAFCGGSIVNEKWIVTAAHCVETGVNITVVAGEHNIEETEHTEQNRSVIRIIPHHNYNAAINKYNHDIALLELDEPLVLNSYVTPICIADKEYTNIFLKFGSGYVSGWGRVFHKGYSALVLQYLRVPLVDRATCLESTKFRIYNNMFCAGFHEGGRDSCQGDSGGPHVTEVEGTSFLTGIISWGEECAMKGKYGIYTKVSEYVNWIKNKTKLT | 0.0368 | 646 | 9.4 | 3e+08 |  |  | 
8 | FIXa-K228N/K247N/N249S/R318Y/R338E/T343R/R403E/E410N (protein) chain 1: YNSGKLEEFVQGNLERECMEEKCSFEEAREVFENTERTTEFWKQYVDGDQCESNPCLNGGSCKDDINSYECWCPFGFEGKNCELDVTCNIKNGRCEQFCKNSADNKVVCSCTEGYRLAENQKSCEPAVPFPCGRVSVSQTSKLTR chain 2: VVGGEDAKPGQFPWQVVLNGKVDAFCGGSIVNEKWIVTAAHCVETGVNITVVAGEHNIEETEHTEQNRSVIRIIPHHNYNAAINKYNHDIALLELDEPLVLNSYVTPICIADKEYTNIFLKFGSGYVSGWGRVFHKGYSALVLQYLRVPLVDRATCLESTKFRIYNNMFCAGFHEGGRDSCQGDSGGPHVTEVEGTSFLTGIISWGEECAMKGKYGIYTKVSEYVNWIKNKTKLT | 0.0251 | 880 | 9.9 | 4.1e+08 |  |  | 
9 | FIXa-K228N/R318Y/R338E/T343R/R403E/E410N (protein) chain 1: YNSGKLEEFVQGNLERECMEEKCSFEEAREVFENTERTTEFWKQYVDGDQCESNPCLNGGSCKDDINSYECWCPFGFEGKNCELDVTCNIKNGRCEQFCKNSADNKVVCSCTEGYRLAENQKSCEPAVPFPCGRVSVSQTSKLTR chain 2: VVGGEDAKPGQFPWQVVLNGKVDAFCGGSIVNEKWIVTAAHCVETGVNITVVAGEHNIEETEHTEQKRNVIRIIPHHNYNAAINKYNHDIALLELDEPLVLNSYVTPICIADKEYTNIFLKFGSGYVSGWGRVFHKGYSALVLQYLRVPLVDRATCLESTKFRIYNNMFCAGFHEGGRDSCQGDSGGPHVTEVEGTSFLTGIISWGEECAMKGKYGIYTKVSEYVNWIKNKTKLT |  |  |  |  | 10.5 | 0.0403 | 
10 | FIXa-Y155F/N260S/R318Y/R338E/T343R/R403E/E410N (protein) chain 1: YNSGKLEEFVQGNLERECMEEKCSFEEAREVFENTERTTEFWKQYVDGDQCESNPCLNGGSCKDDINSYECWCPFGFEGKNCELDVTCNIKNGRCEQFCKNSADNKVVCSCTEGYRLAENQKSCEPAVPFPCGRVSVSQTSKLTR chain 2: VVGGEDAKPGQFPWQVVLNGKVDAFCGGSIVNEKWIVTAAHCVETGVKITVVAGEHNIEETEHTEQKRNVIRIIPHHNYSAAINKYNHDIALLELDEPLVLNSYVTPICIADKEYTNIFLKFGSGYVSGWGRVFHKGYSALVLQYLRVPLVDRATCLESTKFRIYNNMFCAGFHEGGRDSCQGDSGGPHVTEVEGTSFLTGIISWGEECAMKGKYGIYTKVSEYVNWIKNKTKLT | 0.0402 | 335 | 5.8 | 1.5e+08 |  |  | 
11 | FIXa-K247N/N249S/R318Y/R338E/T343R/R403E/E410N (protein) chain 1: YNSGKLEEFVQGNLERECMEEKCSFEEAREVFENTERTTEFWKQYVDGDQCESNPCLNGGSCKDDINSYECWCPFGFEGKNCELDVTCNIKNGRCEQFCKNSADNKVVCSCTEGYRLAENQKSCEPAVPFPCGRVSVSQTSKLTR chain 2: VVGGEDAKPGQFPWQVVLNGKVDAFCGGSIVNEKWIVTAAHCVETGVKITVVAGEHNIEETEHTEQNRSVIRIIPHHNYNAAINKYNHDIALLELDEPLVLNSYVTPICIADKEYTNIFLKFGSGYVSGWGRVFHKGYSALVLQYLRVPLVDRATCLESTKFRIYNNMFCAGFHEGGRDSCQGDSGGPHVTEVEGTSFLTGIISWGEECAMKGKYGIYTKVSEYVNWIKNKTKLT | 0.0292 | 824 | 10.6 | 3.8e+08 |  |  | improved activity when combined with other mutations
12 | FIXa-K228N/I251S/R318Y/R338E/R403E/E410N (protein) chain 1: YNSGKLEEFVQGNLERECMEEKCSFEEAREVFENTERTTEFWKQYVDGDQCESNPCLNGGSCKDDINSYECWCPFGFEGKNCELDVTCNIKNGRCEQFCKNSADNKVVCSCTEGYRLAENQKSCEPAVPFPCGRVSVSQTSKLTR chain 2: VVGGEDAKPGQFPWQVVLNGKVDAFCGGSIVNEKWIVTAAHCVETGVNITVVAGEHNIEETEHTEQKRNVSRIIPHHNYNAAINKYNHDIALLELDEPLVLNSYVTPICIADKEYTNIFLKFGSGYVSGWGRVFHKGYSALVLQYLRVPLVDRATCLESTKFTIYNNMFCAGFHEGGRDSCQGDSGGPHVTEVEGTSFLTGIISWGEECAMKGKYGIYTKVSEYVNWIKNKTKLT | 0.0364 | 463 | 7.5 | 2.1e+08 |  |  | 
13 | FIXa-K228N/K247N/N249S/R318Y/R338E/T343R/R403E (protein) chain 1: YNSGKLEEFVQGNLERECMEEKCSFEEAREVFENTERTTEFWKQYVDGDQCESNPCLNGGSCKDDINSYECWCPFGFEGKNCELDVTCNIKNGRCEQFCKNSADNKVVCSCTEGYRLAENQKSCEPAVPFPCGRVSVSQTSKLTR chain 2: VVGGEDAKPGQFPWQVVLNGKVDAFCGGSIVNEKWIVTAAHCVETGVNITVVAGEHNIEETEHTEQNRSVIRIIPHHNYNAAINKYNHDIALLELDEPLVLNSYVTPICIADKEYTNIFLKFGSGYVSGWGRVFHKGYSALVLQYLRVPLVDRATCLESTKFRIYNNMFCAGFHEGGRDSCQGDSGGPHVTEVEGTSFLTGIISWGEECAMKGKYGIYTKVSEYVNWIKEKTKLT |  |  |  |  | 10.9 | 0.0444 | 
